Measurements from the supplement of paper PMC7125110.
± gives the standard error. Fewer inactive variants are shown than the library holds.

B1: glmS ribozyme (parent)
chain: AUAAAAGCGCCAGAACUACAGAAAUGUAGUUGACGAGGAGGAGGUUUAUCGAAUUUUCGGCGGAUGCCUCCAAA

Variants of: B1
Experiment: self-cleavage kobs at 10000 uM GlcN6P; higher = faster cleavage; RNA array
Settings: with glucosamine-6-phosphate
Procedure, shortened: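 Glucosamine-6-phosphate in HEPES/KCl/Mg(OAc)2 buffer, at 40 μM to 10 mM, was flowed over barcoded ribozyme variants transcribed in situ by E. coli RNA polymerase on sequenced MiSeq chips. Tracking was through a hybridised Cy3 probe at 37 °C. kobs, kcat and KM came from exponential decay fits and weighted Michaelis–Menten fits of normalised per-tile medians.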

C16U U30G G59C and A33C A36C C50U C68A cannot be ordered by “self-cleavage kobs at 10000 uM GlcN6P” value: under 1e-05 s⁻¹ for the first, under 1e-05 s⁻¹ for the second.

Compared with C16U A53G U69G, A12C C61U G66U is lower in “self-cleavage kobs at 10000 uM GlcN6P” value: 6.58e-05 ± 1.9e-05 s⁻¹ for the first, under 1e-05 s⁻¹ for the second.

G7U U47A U57G and G40A C58U C67G C71G cannot be ordered by “self-cleavage kobs at 10000 uM GlcN6P” value: under 1e-05 s⁻¹ for the first, under 1e-05 s⁻¹ for the second.

G13C U49A G60U C61A and A33G A39U U49C C68G cannot be ordered by “self-cleavage kobs at 10000 uM GlcN6P” value: under 1e-05 s⁻¹ for the first, under 1e-05 s⁻¹ for the second.

Compared with U30C G32C U47G C50G A53U A64G C68A C70A, G26U U57G is 5.7-fold lower in “self-cleavage kobs at 10000 uM GlcN6P” value: 0.000334 ± 8.3e-05 s⁻¹ for the first, 5.83e-05 ± 2e-05 s⁻¹ for the second.

G38U A64U C71U and G7C U55G U56C U69A cannot be ordered by “self-cleavage kobs at 10000 uM GlcN6P” value: under 1e-05 s⁻¹ for the first, under 1e-05 s⁻¹ for the second.

A64C U65G and G44C U45A U46G are within error of each other in “self-cleavage kobs at 10000 uM GlcN6P” value: 4.42e-05 ± 1.1e-05 s⁻¹ for the first, 3.99e-05 ± 2e-05 s⁻¹ for the second.

Going from U31G C67A C71A to C8G G32U G43A C68G, the “self-cleavage kobs at 10000 uM GlcN6P” value falls from 0.000258 ± 6.9e-05 s⁻¹ to under 1e-05 s⁻¹.

First: C11U A39G C58G
Second: G35C C67U
The “self-cleavage kobs at 10000 uM GlcN6P” value of the first is 60-fold lower: 7.12e-05 ± 1.7e-05 s⁻¹ for the first, 0.00429 s⁻¹ for the second.

U31C G40C U54C U56A A64U and G43U G59C C68A cannot be ordered by “self-cleavage kobs at 10000 uM GlcN6P” value: under 1e-05 s⁻¹ for the first, under 1e-05 s⁻¹ for the second.

Going from A12G G51U C58G to A12U G29C G41A, the “self-cleavage kobs at 10000 uM GlcN6P” value rises from under 1e-05 s⁻¹ to 0.000129 ± 4.9e-05 s⁻¹.

Compared with A33G G37U U45C G62U, A14C G40A U47C is higher in “self-cleavage kobs at 10000 uM GlcN6P” value: under 1e-05 s⁻¹ for the first, 0.000375 ± 7e-05 s⁻¹ for the second.

Going from A6U G7U G13U U31C to C11A U30G C67A, the “self-cleavage kobs at 10000 uM GlcN6P” value rises from under 1e-05 s⁻¹ to 9.25e-05 ± 1.7e-05 s⁻¹.

First: A6G C8U U30A G40C A64C U65A
Second: A20U G32C
The “self-cleavage kobs at 10000 uM GlcN6P” value of the first is lower: under 1e-05 s⁻¹ for the first, 7.58e-05 ± 2.1e-05 s⁻¹ for the second.

Going from A39C G51C G59C to C11A A12C U57G C67G, the “self-cleavage kobs at 10000 uM GlcN6P” value rises from under 1e-05 s⁻¹ to 3.81e-05 ± 1.5e-05 s⁻¹.

Going from G13C A14G U69G to C50A G62C, the “self-cleavage kobs at 10000 uM GlcN6P” value falls from 3.8e-05 ± 1.6e-05 s⁻¹ to under 1e-05 s⁻¹.

Going from A12C A15U A52G to C10U C16G C61A C71U, the “self-cleavage kobs at 10000 uM GlcN6P” value falls from 0.000174 ± 3.6e-05 s⁻¹ to under 1e-05 s⁻¹.

G9U A14C A36C U46A and G7A U31C C50U U65G cannot be ordered by “self-cleavage kobs at 10000 uM GlcN6P” value: under 1e-05 s⁻¹ for the first, under 1e-05 s⁻¹ for the second.

First: G9U G32C C34G U54G A64U C71A
Second: G7A U55A G66A C67U U69G
The “self-cleavage kobs at 10000 uM GlcN6P” value of the first is lower: under 1e-05 s⁻¹ for the first, 0.000476 ± 0.00013 s⁻¹ for the second.

Compared with G9A A53C G62A C70G, G7A G9A A53G G60A U65A C67A is higher in “self-cleavage kobs at 10000 uM GlcN6P” value: under 1e-05 s⁻¹ for the first, 0.000102 ± 2.7e-05 s⁻¹ for the second.

Going from C10A C58G G60A U69G to G13C G38U A48U C50A, the “self-cleavage kobs at 10000 uM GlcN6P” value falls from 5.7e-05 ± 1.6e-05 s⁻¹ to under 1e-05 s⁻¹.

A12U G37C U45A A48U C68U and G7C A14G A39C A48G A53U cannot be ordered by “self-cleavage kobs at 10000 uM GlcN6P” value: under 1e-05 s⁻¹ for the first, under 1e-05 s⁻¹ for the second.

C8A A39G G41U G66U C67G and A12C G29C G43C cannot be ordered by “self-cleavage kobs at 10000 uM GlcN6P” value: under 1e-05 s⁻¹ for the first, under 1e-05 s⁻¹ for the second.

Compared with A15U A42U C67A, C11G A39U G44U A48C is lower in “self-cleavage kobs at 10000 uM GlcN6P” value: 0.000127 ± 3.2e-05 s⁻¹ for the first, under 1e-05 s⁻¹ for the second.

First: A36C U69A C70U
Second: C34U C58U
The “self-cleavage kobs at 10000 uM GlcN6P” value of the first is higher: 6.82e-05 ± 1.5e-05 s⁻¹ for the first, under 1e-05 s⁻¹ for the second.

Compared with A12C G41A U46G, G40A U69C is 6-fold lower in “self-cleavage kobs at 10000 uM GlcN6P” value: 0.000334 ± 7.8e-05 s⁻¹ for the first, 5.59e-05 ± 1.9e-05 s⁻¹ for the second.

C10U G38U U46A C58U and A6C G29A C34U G43U G44U cannot be ordered by “self-cleavage kobs at 10000 uM GlcN6P” value: under 1e-05 s⁻¹ for the first, under 1e-05 s⁻¹ for the second.

G44A U56A G60C C68A and G38C G43C G59C cannot be ordered by “self-cleavage kobs at 10000 uM GlcN6P” value: under 1e-05 s⁻¹ for the first, under 1e-05 s⁻¹ for the second.

U55G C68A C71U and A12G C50U A52G U69G C71A are within error of each other in “self-cleavage kobs at 10000 uM GlcN6P” value: 2.99e-05 ± 1.4e-05 s⁻¹ for the first, 3.23e-05 ± 1.6e-05 s⁻¹ for the second.

G32U C34A G37U and G37A G38A A42C G59U cannot be ordered by “self-cleavage kobs at 10000 uM GlcN6P” value: under 1e-05 s⁻¹ for the first, under 1e-05 s⁻¹ for the second.

Compared with C16U U54A C70G, U54G C58A C71U is 1.8-fold higher in “self-cleavage kobs at 10000 uM GlcN6P” value: 0.000121 ± 2.5e-05 s⁻¹ for the first, 0.000213 ± 4.7e-05 s⁻¹ for the second.

A42G C58U and U27G A42U are within error of each other in “self-cleavage kobs at 10000 uM GlcN6P” value: 9.52e-05 ± 1.4e-05 s⁻¹ for the first, 0.000136 ± 3e-05 s⁻¹ for the second.

U30A G44A C68G and A52U C58G U65G cannot be ordered by “self-cleavage kobs at 10000 uM GlcN6P” value: under 1e-05 s⁻¹ for the first, under 1e-05 s⁻¹ for the second.

G9A C11U U30C A52U G62U and G9C U46G A53U U55G cannot be ordered by “self-cleavage kobs at 10000 uM GlcN6P” value: under 1e-05 s⁻¹ for the first, under 1e-05 s⁻¹ for the second.

First: G37C U46A G60U
Second: A15G G60A
The “self-cleavage kobs at 10000 uM GlcN6P” value of the first is lower: under 1e-05 s⁻¹ for the first, 3.03e-05 ± 1.1e-05 s⁻¹ for the second.

G37U C58G G63U and A39U G41C U49A C61U cannot be ordered by “self-cleavage kobs at 10000 uM GlcN6P” value: under 1e-05 s⁻¹ for the first, under 1e-05 s⁻¹ for the second.

C10A G32A G60C G63A and A6U G7C A14G U57C cannot be ordered by “self-cleavage kobs at 10000 uM GlcN6P” value: under 1e-05 s⁻¹ for the first, under 1e-05 s⁻¹ for the second.

A42C C61U C68U and G13U C61G C68G cannot be ordered by “self-cleavage kobs at 10000 uM GlcN6P” value: under 1e-05 s⁻¹ for the first, under 1e-05 s⁻¹ for the second.

First: C16U G40U G66U
Second: G41C G66C C68A
The “self-cleavage kobs at 10000 uM GlcN6P” value of the first is higher: 4.28e-05 ± 1.2e-05 s⁻¹ for the first, under 1e-05 s⁻¹ for the second.

A6C G35C A52C G66U and U30C U46C G59U cannot be ordered by “self-cleavage kobs at 10000 uM GlcN6P” value: under 1e-05 s⁻¹ for the first, under 1e-05 s⁻¹ for the second.

Compared with G29U G41U U45C C70U, A36C A39U U55A is lower in “self-cleavage kobs at 10000 uM GlcN6P” value: 0.000108 ± 2.4e-05 s⁻¹ for the first, under 1e-05 s⁻¹ for the second.

G40U U47C G51A G59U C71U and A39C G44C G60U cannot be ordered by “self-cleavage kobs at 10000 uM GlcN6P” value: under 1e-05 s⁻¹ for the first, under 1e-05 s⁻¹ for the second.

Compared with G35U G40C A53U U54A, A14G G44C C67U is higher in “self-cleavage kobs at 10000 uM GlcN6P” value: under 1e-05 s⁻¹ for the first, 0.00278 ± 0.0013 s⁻¹ for the second.
